From the supplement of paper PMC12764529
± gives the half width of the 95% confidence interval.

assay: folding stability dG unfold from chymotrypsin proteolysis; higher = more stable
How it was run: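 Sequencing followed digestion of designed mini-proteins with trypsin and chymotrypsin, each at 11 concentrations in threefold dilutions together with a no-protease condition. The mini-proteins were under 80 residues, had no cysteine, sat in a PA-tagged cDNA display construct, and were kept only if AlphaFold2 dimer inter-PAE was above 15. From the counts, Bayesian fitting gave K50, and unfolding free energy was derived against a sequence-predicted unfolded-state K50 and a shared folded-state K50, per protease or combined.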

Sequence	folding stability dG unfold
SAGGSAGGSAAEVEVETLELEIDGVKITVTRVRNADGELLYFARIEVRPAPPPPPVSLEDLSAGGSAGGSAG [r3_68_TrROS_Hall]	3.25 ± 0.074 kcal/mol
SAGGMKPGQPWHEIEVQREIDLPPGQISAEEIADLIAELFPGFRVEDFRIEFTGKKWRIDVTIYIPYSAGGS [r8_202_TrROS]	3.49 ± 0.039 kcal/mol
SAGGSAGGSAGGPNIKIKDVHEHPPEDGNPIVMFEIKAKDDDGEKVYIIITPDKIHIMPISAGGSAGGSAGG [r7_960_TrROS]	1.15 ± 0.21 kcal/mol
SAGGSAGGSMPPVVLEVKDPESGKVTTLFFFPPTGEALVVPPDGSVFYEPFTSLDELVERLAGSAGGSAGGS [r12_511_TrMRF]	1.71 ± 0.051 kcal/mol
SAGGSAGGSAGGKVLHVPYENIEEKIKEAEEKYPNKEILIHAYLPNGKLLKTIKIKVKKSAGGSAGGSAGGS [r10_741_TrMRF]	1.18 ± 0.03 kcal/mol
SAGGIRIDDEGMIQIYFPGWRHTIPIKPNLEITEITIPDDGYIKITFRIPGKTVKHEFPMLPPGQEISAGGS [r16_635_TrROS]	1.32 ± 0.1 kcal/mol
SAALAELLLNEGYEVRIEVEVREVRPRTLPGGGTTVELDITVRIELRPPPIPPPPLDPRLLRDEDGHLRSAG [r14_569_TrMRF]	1.95 ± 0.071 kcal/mol
SAGPPPVKVTVTADYVIEDGKPIVTYTLTFPDGSTTTVTSDPETLVEWLKQHYPDIDVLNFNSGTAPAASAG [r5_25_JUSTAS]	4.05 ± 0.047 kcal/mol
SAGGSAGGSITPEEAKALAEEIKKALGVPDVEVLEIRVERDPERDFYTADIVIRLPDGSVIRASAGGSAGGS [r12_508_TrMRF]	1.04 ± 0.064 kcal/mol
SMKINVVINITLPDGTTVTSTLNLTESEIEKTIKEKIPSSYKVEITKKDPVDPAKLPPGSSINVDLTVNLSA [r9_803_JUSTAS]	1.69 ± 0.15 kcal/mol
SMKIEIIERNEDGEYVLVRITFEDGEEITIVAKTEEEAKEAAKEIAKELFPDVKIKKIEVVPLEDLPEELSA [r9_137_TrROS_Hall]	0.251 ± 0.37 kcal/mol
SAGGLLPLLKEIAEALGLPEIESLSFDPETGELTLRFRGPEPYLLRIPFRPVKDGGIPLDIEVYPTDLSAGG [r13_410_TrMRF]	3.006 ± 0.03 kcal/mol
SAGGSAGGSAGGEIEVKEGEVVLVRLPDGTLLLYDKNTRRLYRFRFKDGKLEVEELELPESAGGSAGGSAGG [r7_527_TrROS_Hall]	4.356 ± 0.039 kcal/mol
SAGGSAGGTATLVLPAAAFPSRPDGSLGLEEIRDVARPIAQEAFGTDDITLDVESHPDGFVTITFSSAGGSA [r15_562_TrMRF]	0.197 ± 0.17 kcal/mol
SAIEIYIYPDNWMISIEPPNPNGPEKEIMIPIDKDDLKNPEFLKEIADEIMENGIPVEADIMPPGQPIPSAG [r14_60_TrROS]	-0.0516 ± 0.13 kcal/mol
SAGGGTYIEIKVTYSDGTTETFTVPAKPEDIETVVKEIEDKLKELGGTITSIKIENGKITIEATIPDSAGGS [r16_662_TrMRF]	3.3 ± 0.087 kcal/mol

Sequence	folding stability dG unfold
SAGGKKIEIKEENGSLVIKVDGYLVTIEPIDGKLVATVVKKDKKTKKWKIVETKILTLDEILELLKKSAGGS [r8_174_TrROS_Hall]	3.034 ± 0.026 kcal/mol
SAGGSAGGSAGGAKKAIEEAIKAGYLPYEDPESGKIHFYFPTPDGTIHKLTLFVAPEEESAGGSAGGSAGGS [r10_1173_TrMRF]	0.711 ± 0.17 kcal/mol
SAGGSAGGSAGGSSKVIEVNGYKITVTDNSVEIYNKKTGKKITVNADNPEVQELLKKLLSAGGSAGGSAGGS [r4_353_TrROS_Hall]	4.254 ± 0.037 kcal/mol
SAGGSAGGSKPDTIKITFPDGFEIEINGPGMIMIRFPEQGYIFRIPIDPDKNEIKIEIVEPLPSAGGSAGGS [r12_539_TrROS]	3.39 ± 0.045 kcal/mol
SAGGKITIEVTYNKETGEITIRITFNGKTIEIKIKVPGLSEEEVKKLAEELAKKLKEKYGIDKVEITSAGGS [r16_249_TrROS_Hall]	4.4 ± 0.11 kcal/mol
SAGGLPEEVEKLAEILAKLPPVVPVPVTFPDGVEVVYFPPTGFVAVRFYERDENGEWVLVGETFFPVSAGGS [r16_243_TrMRF]	3.235 ± 0.016 kcal/mol
SAGGSAMFVVVEVESPEELRELVEEEDPSVFLLPTEDGEERLVVVDPENPENIRVIPLERPELLAPSAGGSA [r15_11_TrMRF]	-0.285 ± 0.27 kcal/mol
SEEPVEERDIVVKPGEEVKLELPEEPETVRVYVFNEDGELIEEREFPPGATPEELEGLKLPPGAVVRIVRSA [r9_215_TrROS_Hall]	2.54 ± 0.029 kcal/mol
SIEIYEGPEEAEEMAEENGTPVIPIPPDMNLSEILKQLKNQPGLPPDQKIVIVIQWEPGQWYVIRIPIKPSA [r9_314_TrROS]	2.734 ± 0.022 kcal/mol
SKKKKEKKKKEKEKKEKKKVIVLSEEELLEKVRELAKKGKKVKIVVKTPDKELAERLAKEAEELGVEVEVSA [r9_468_TrROS_Hall]	1.32 ± 0.027 kcal/mol
SAAFAIKAIATPPNGKKYEILALDNGEGVLVFIENGSKEIPLEELIKLIENNPELKIEKIEIRPLSEFLSAG [r14_336_TrMRF]	0.486 ± 0.19 kcal/mol
SAGGSAGGNGPPDIKIKIEILEVHPGHRDPDGKYYFRVRVEIEYPNKPVKVDFPMPADDAKDLISAGGSAGG [r6_724_TrROS]	4.2 ± 0.092 kcal/mol
SAGGMKITLPPGAEITEVFELPDGQLLLRVRHKDTGKTEVVPASDLEIEIEPGEEVEVEIFRVPKEDLSAGG [r13_173_TrROS_Hall]	1.45 ± 0.13 kcal/mol
SAGGPKPKTYDIMIPFDSEEEAEKLMENPEWAKEIAKEIAPLFPGYDIKVEVSWHPETGYFMVKITVSAGGS [r16_320_TrROS]	4.12 ± 0.18 kcal/mol
SAGGSAGGSAGMTVTTITKTYPFDPNKSLSFTVPPGATITDKKTDADIAKGTVTVTVTVASAGGSAGGSAGG [r11_701_JUSTAS]	0.355 ± 0.13 kcal/mol
